The labels stand for the following.
B1: HDV Ribozyme (parent)
chain: GGCCGGCAUGGUCCCAGCCUCCUCGCUGGCGCCGGCUGGGCAACAUUCCGAGGGGACCGUCCCCUCGGUAAUGGCGAAUGGGACCCA

This data set covers variants of B1. The data set is described as follows: self-cleavage, relative activity (ratio to wild type); higher = more cleavage; co-transcriptional.
Consider GGCCGGCAUGGUCCCGGCCUCCUCGCUGGCGCCGGCUGGGCAACAUUCUGAGGGGACCGUCCCCUCGGUAAUGGCGAAUGGGACCCA, for which the self-cleavage was determined as 1.23.
Then GGCCGGCAUGGUCCCGGCCUCCUCGCUGGCGCCGGCUGGGCAACAUUCGGAGGGGACCGUCCCCUCGGUAAUGGCGAAUGGGACCCA, with 0.875; and GGCCGGCAUGGUCCCGGCCUCCUCGCUGGCGCCGGCUGGGCAACAUUCCGAGGGGACCGUCCCCUCGGUUAUGGCGAAUGGGACCCA, with 0.499; and GGCCGGCAUGGUCCCGGCCUCCUCGCUGGCGCGGGCUGGGCAACAUUCCGAGGGGACCGUCCCCUCGGUAAUGGCGAAUGGGACCCA, with 0.19.
Consider GGCCGGCAUGGUCCCGGCCUCCUCGCUGGCGCAGGCUGGGCAACAUUCCGAGGGGACCGUCCCCUCGGUAAUGGCGAAUGGGACCCA, for which the self-cleavage was 0.268.
In the case of GGCCGGCAUGGUCCCGGCCUCCUCGCUGGCGCCGGCUGGGCAACAUUCCGAGGGGACCGUCCCCUCGGUAAUGGCGAAUGGGACUCA, the self-cleavage was determined as 0.969.
With GGCCGGCAUGGUCCCGGCCUCCUCGCUGGCGCCGGCUGGGCAACAUUCCGAGGGGACCGUCCCCUCGGUAAUGGCGAAUGGGACGCA the figure was 0.965; with GGCCGGCAUGGUCCCGGCCUCCUCGCUGGCGCCGGCUGGGCAACAUUCCUAGGGGACCGUCCCCUCGGUAAUGGCGAAUGGGACCCA, 1.02; with GGCCGGCAUGGUCCCGGCCUCCUCGCUGGCGCCGGCUGGGCAACAUUCCCAGGGGACCGUCCCCUCGGUAAUGGCGAAUGGGACCCA, 0.95.
Take GGCCGGCAUGGUCCCGGCCUCCUCGCUGGCGCCGGCUGGGCAACAUUCCGAGGGGACCCUCCCCUCGGUAAUGGCGAAUGGGACCCA: the self-cleavage was 0.929.
Then GGCCGGCAUGGUCCCGGCCUCCUCGCUGCCGCCGGCUGGGCAACAUUCCGAGGGGACCGUCCCCUCGGUAAUGGCGAAUGGGACCCA, with 0; and GGCCGGCAUGGUCCCGGCCUCCUCGCUGGCGCCGGCUCGGCAACAUUCCGAGGGGACCGUCCCCUCGGUAAUGGCGAAUGGGACCCA, with 0.142; and GGCCGGCAUGGUCCCGGCCUCCUCGCUGGCGCCGGCUAGGCAACAUUCCGAGGGGACCGUCCCCUCGGUAAUGGCGAAUGGGACCCA, with 0.213.
With GGCCGGCAUGGUCCCGGCCUCCUCGCUGGCGCCGGCUGGGCAACAUUCCGAGGGGACCGUCCCCUCGGUAAUGGCGAAUGGGAGCCA the figure was 0.623.
Turning to GGCCGGCAUGGUCCCGGCCUCCUCGCUGGCGCCGGCUGGGCAACAUUCCGAGGGGUCCGUCCCCUCGGUAAUGGCGAAUGGGACCCA, the self-cleavage amounted to 1.25.
In the case of GGCCGGCAUGGUCCCGGCCUCUUCGCUGGCGCCGGCUGGGCAACAUUCCGAGGGGACCGUCCCCUCGGUAAUGGCGAAUGGGACCCA, the self-cleavage is 0.853.
With GGCCGGCAUGGUCCCGGCCUCCUCGCUGGCGCCGGCUGGGCAACAUUCCGAGGGGACCGUGCCCUCGGUAAUGGCGAAUGGGACCCA the figure was 0.962; with GGCCGGCAUGGUCCCGGCCUCCUCGCUGGCGCCGGCUGGGCAACAUUCCGAGGGGACCGUCCCCUCGGUAAUGGCGAAUGGGUCCCA, 0.415; with GGCCGGCAUGGUCCCGGCCUCCUCGCUGGCGCCGGCUGGGCAACAUUCCGAGUGGACCGUCCCCUCGGUAAUGGCGAAUGGGACCCA, 1.02.
Take GGCCGGCAUGGUCCCGGCCUCCUCGCUGGCGCCGGCUGGGCAACAUUCCGAGCGGACCGUCCCCUCGGUAAUGGCGAAUGGGACCCA: the self-cleavage is 1.11.
Consider GGCCGGCAUGGUCCCGGCCUCCUUGCUGGCGCCGGCUGGGCAACAUUCCGAGGGGACCGUCCCCUCGGUAAUGGCGAAUGGGACCCA, for which the self-cleavage was 0.808.
Turning to GGCCGGCAUGGUCCCGGCCUCCUAGCUGGCGCCGGCUGGGCAACAUUCCGAGGGGACCGUCCCCUCGGUAAUGGCGAAUGGGACCCA, the self-cleavage was 0.569.
GGCCGGCAUGGUCCCGGCCUCCUCGCUGGCUCCGGCUGGGCAACAUUCCGAGGGGACCGUCCCCUCGGUAAUGGCGAAUGGGACCCA: the self-cleavage amounted to 0.375.
Turning to GGCCGGCAUGGUCCCGGCCUCCUCGCUGGCGCCGGCUGGGCAACAUUCCGAGGGGACCGUCCCCUCGGUAAUGGUGAAUGGGACCCA, the self-cleavage worked out at 0.178.
Consider GGCCGGCAUGGUCCCGGCCUCCUCGCUGGCGCCGGCUGGGCAACAUUCCGAGGGGACCGUCCCCUCGGUAAUGGGGAAUGGGACCCA, for which the self-cleavage is 0.222.
Then GGCCGGCAUGGUCCCGGCCUCCUCGCUGGCGCCGGCUGGGGAACAUUCCGAGGGGACCGUCCCCUCGGUAAUGGCGAAUGGGACCCA, with 0.623; and GGCCGGCAUGGUCCCGGCCUCCUCGCUGGCGCCGGCUGGGCAACAUUCCGAUGGGACCGUCCCCUCGGUAAUGGCGAAUGGGACCCA, with 1.07; and GGCCGGCAUGGUCCCGGCCUCCUCGCUGGCGCCGGCUGGGCAACAUUCCGACGGGACCGUCCCCUCGGUAAUGGCGAAUGGGACCCA, with 0.928.
For GGCCGGCAUGGUCCCGGCCUCCUCGCUGGCGCCGGCUGGGCAACAUUCCGAGGGCACCGUCCCCUCGGUAAUGGCGAAUGGGACCCA, the self-cleavage worked out at 1.2.
With GGCCGGCAUGGUCCCGGCCUCCUCGCUGGCGCCGGCUGGGCAACAUUCCGAGGGUACCGUCCCCUCGGUAAUGGCGAAUGGGACCCA, the self-cleavage is 0.914.
Then GGCCGGCAUGGUCCCGGCCUCCUCGCUGGCGCCGGCUGGGCAACAUUCCGAGGGGACCGUCCCCUCGGUAAUGGCGAGUGGGACCCA, with 0.465; and GGCCGGCAUGGUCCCGGCCUCCUCGCUGGCGCCGGCUGGGCAACAUUCCGAGGGGACCGUCCCCUCGGUAAUGGCGACUGGGACCCA, with 0.308.

(Values after the RNAGym collection of RNA variant scans (doi:10.7554/elife.80360).)
